Here are results for four molecules from US20250388669A1 (published 2025).

T1: B7H3 (human, UniProt Q5ZPR3 29-466, limits assumed)
T1 sequence (looked up): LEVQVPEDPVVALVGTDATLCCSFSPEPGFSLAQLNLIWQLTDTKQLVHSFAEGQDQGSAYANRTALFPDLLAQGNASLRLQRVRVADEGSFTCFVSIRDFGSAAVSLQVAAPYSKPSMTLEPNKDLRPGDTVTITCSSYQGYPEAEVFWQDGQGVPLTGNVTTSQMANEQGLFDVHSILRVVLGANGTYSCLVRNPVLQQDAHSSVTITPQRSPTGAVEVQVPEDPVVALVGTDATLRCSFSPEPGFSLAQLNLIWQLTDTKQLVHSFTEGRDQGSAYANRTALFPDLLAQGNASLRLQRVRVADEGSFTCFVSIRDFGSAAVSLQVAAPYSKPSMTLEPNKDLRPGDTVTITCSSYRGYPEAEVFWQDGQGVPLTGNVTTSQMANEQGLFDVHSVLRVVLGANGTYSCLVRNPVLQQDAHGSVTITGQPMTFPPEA

B1: Ly2366 (other)
chain 1: QVQLVQSGAEVKKPGASVKVSCKASGYTFTSYVMHWVRQKPGQGLEWIGYINPYNEGTESTDKFKGRATMTSDKSTSTVYMELSSLRSEDTAVYYCASIYYGYEGTYFGVWGQGTLVTVSSASTKGPSVFPLAPSSKSTSGGTAALGCLVKDYFPEPVTVSWNSGALTSGVHTFPAVLQSSGLYSLSSVVTVPSSSLGTQTYICNVNHKPSNTKVDKKVEPKSCGGGGSGGGGSEVQLVESGGGLVQPGGSLRLSCAASGFTFSTYAMNWVRQAPGKGLEWVGRIRSKYNNYATYYADSVKGRFTISRDDSKNSLYLQMNSLKTEDTAVYYCVRHGNFGNSYVSWFAYWGQGTLVTVSSGGGGSDKTHTCPPCPAPEAAGPSVFLFPPKPKDTLMISRTPEVTCVVVDVSHEDPEVKFNWYVDGVEVHNAKTKPREEQYNSTYRVVSVLTVLHQDWLNGKEYKCKVSNKALPAPIEKTISKAKGQPREPQVYTLPPSREEMTKNQVSLWCLVKGFYPSDIAVEWESNGQPENNYKTTPPVLDSDGSFFLYSKLTVDKSRWQQGNVFSCSVMHEALHNHYTQKSLSLSPGGGGGSGGGGSGGGGSGGGGSQVQLVQSGAEVKKPGASVKVSCKASGYTFAGFEMHWVRQAPGQGLEWMGAIDPKTGGTDYNQKFKDRVTMTRDTSISTAYMELSRLRSDDTAVYYCARDLGYFDVWGQGTLVTVSS
chain 2: QVQLVQSGAEVKKPGASVKVSCKASGYTFTSYVMHWVRQKPGQGLEWIGYINPYNEGTESTDKFKGRATMTSDKSTSTVYMELSSLRSEDTAVYYCASIYYGYEGTYFGVWGQGTLVTVSSASTKGPSVFPLAPSSKSTSGGTAALGCLVKDYFPEPVTVSWNSGALTSGVHTFPAVLQSSGLYSLSSVVTVPSSSLGTQTYICNVNHKPSNTKVDKKVEPKSCGGGGSGGGGSQAVVTQEPSLTVSPGGTVTLTCRSSTGAVTTSNYANWVQQKPGQAPRGLIGGTNKRAPWTPARFSGSLLGGKAALTITGAQAEDEADYYCALWYSNLWVFGGGTKLTVLGGGGSDKTHTCPPCPAPEAAGPSVFLFPPKPKDTLMISRTPEVTCVVVDVSHEDPEVKFNWYVDGVEVHNAKTKPREEQYNSTYRVVSVLTVLHQDWLNGKEYKCKVSNKALPAPIEKTISKAKGQPREPQVYTLPPSREEMTKNQVSLSCAVKGFYPSDIAVEWESNGQPENNYKTTPPVLDSDGSFFLVSKLTVDKSRWQQGNVFSCSVMHEALHNRFTQKSLSLSPGGGGGSGGGGSGGGGSGGGGSDIQMTQSPSSLSASVGDRVTITCRASQDIRSNLNWYQQKPGGAVKLLIYYTSRLHSGVPSRFSGSGSGTDYTLTISSLQPEDFATYFCQQSEKLPRTFGGGTKVEIR
light: EIVLTQSPATLSLSPGERATLSCRASSSVSYMHWYQQKPGQAPRPWIYATSNLASGIPARFSGSRSGTDYTLTISSLEPEDFAVYYCQQWSSNTLTFGGGTKVEIKRTVAAPSVFIFPPSDEQLKSGTASVVCLLNNFYPREAKVQWKVDNALQSGNSQESVTEQDSKDSTYSLSSTLTLSKADYEKHKVYACEVTHQGLSSPVTKSFNRGEC
notes: Tri-specific antibody: B7H3 Fabs, central CD3 Fv, terminal CD137 Fv; Flexible linker is (G4S)2
B2: Ly2367 (other)
chain 1: QVQLVQSGAEVKKPGASVKVSCKASGYTFTSYVMHWVRQKPGQGLEWIGYINPYNEGTESTDKFKGRATMTSDKSTSTVYMELSSLRSEDTAVYYCASIYYGYEGTYFGVWGQGTLVTVSSASTKGPSVFPLAPSSKSTSGGTAALGCLVKDYFPEPVTVSWNSGALTSGVHTFPAVLQSSGLYSLSSVVTVPSSSLGTQTYICNVNHKPSNTKVDKKVEPKSCGGGGSEVQLVESGGGLVQPGGSLRLSCAASGFTFSTYAMNWVRQAPGKGLEWVGRIRSKYNNYATYYADSVKGRFTISRDDSKNSLYLQMNSLKTEDTAVYYCVRHGNFGNSYVSWFAYWGQGTLVTVSSGGGGSDKTHTCPPCPAPEAAGPSVFLFPPKPKDTLMISRTPEVTCVVVDVSHEDPEVKFNWYVDGVEVHNAKTKPREEQYNSTYRVVSVLTVLHQDWLNGKEYKCKVSNKALPAPIEKTISKAKGQPREPQVYTLPPSREEMTKNQVSLWCLVKGFYPSDIAVEWESNGQPENNYKTTPPVLDSDGSFFLYSKLTVDKSRWQQGNVFSCSVMHEALHNHYTQKSLSLSPGGGGGSGGGGSGGGGSGGGGSQVQLVQSGAEVKKPGASVKVSCKASGYTFAGFEMHWVRQAPGQGLEWMGAIDPKTGGTDYNQKFKDRVTMTRDTSISTAYMELSRLRSDDTAVYYCARDLGYFDVWGQGTLVTVSS
chain 2: QVQLVQSGAEVKKPGASVKVSCKASGYTFTSYVMHWVRQKPGQGLEWIGYINPYNEGTESTDKFKGRATMTSDKSTSTVYMELSSLRSEDTAVYYCASIYYGYEGTYFGVWGQGTLVTVSSASTKGPSVFPLAPSSKSTSGGTAALGCLVKDYFPEPVTVSWNSGALTSGVHTFPAVLQSSGLYSLSSVVTVPSSSLGTQTYICNVNHKPSNTKVDKKVEPKSCGGGGSQAVVTQEPSLTVSPGGTVTLTCRSSTGAVTTSNYANWVQQKPGQAPRGLIGGTNKRAPWTPARFSGSLLGGKAALTITGAQAEDEADYYCALWYSNLWVFGGGTKLTVLGGGGSDKTHTCPPCPAPEAAGPSVFLFPPKPKDTLMISRTPEVTCVVVDVSHEDPEVKFNWYVDGVEVHNAKTKPREEQYNSTYRVVSVLTVLHQDWLNGKEYKCKVSNKALPAPIEKTISKAKGQPREPQVYTLPPSREEMTKNQVSLSCAVKGFYPSDIAVEWESNGQPENNYKTTPPVLDSDGSFFLVSKLTVDKSRWQQGNVFSCSVMHEALHNRFTQKSLSLSPGGGGGSGGGGSGGGGSGGGGSDIQMTQSPSSLSASVGDRVTITCRASQDIRSNLNWYQQKPGGAVKLLIYYTSRLHSGVPSRFSGSGSGTDYTLTISSLQPEDFATYFCQQSEKLPRTFGGGTKVEIR
light: B1 light
notes: Tri-specific antibody: B7H3 Fabs, central CD3 Fv, terminal CD137 Fv; Flexible linker is G4S
B3: Ly2384 (other)
chain 1: QVQLVQSGAEVKKPGASVKVSCKASGYTFTSYVMHWVRQKPGQGLEWIGYINPYNEGTESTDKFKGRATMTSDKSTSTVYMELSSLRSEDTAVYYCASIYYGYEGTYFGVWGQGTLVTVSSASTKGPSVFPLAPSSKSTSGGTAALGCLVKDYFPEPVTVSWNSGALTSGVHTFPAVLQSSGLYSLSSVVTVPSSSLGTQTYICNVNHKPSNTKVDKKVEPKSCGGGSEVQLVESGGGLVQPGGSLRLSCAASGFTFSTYAMNWVRQAPGKGLEWVGRIRSKYNNYATYYADSVKGRFTISRDDSKNSLYLQMNSLKTEDTAVYYCVRHGNFGNSYVSWFAYWGQGTLVTVSSGGGGSDKTHTCPPCPAPEAAGPSVFLFPPKPKDTLMISRTPEVTCVVVDVSHEDPEVKFNWYVDGVEVHNAKTKPREEQYNSTYRVVSVLTVLHQDWLNGKEYKCKVSNKALPAPIEKTISKAKGQPREPQVYTLPPSREEMTKNQVSLWCLVKGFYPSDIAVEWESNGQPENNYKTTPPVLDSDGSFFLYSKLTVDKSRWQQGNVFSCSVMHEALHNHYTQKSLSLSPGGGGGSGGGGSGGGGSGGGGSQVQLVQSGAEVKKPGASVKVSCKASGYTFAGFEMHWVRQAPGQGLEWMGAIDPKTGGTDYNQKFKDRVTMTRDTSISTAYMELSRLRSDDTAVYYCARDLGYFDVWGQGTLVTVSS
chain 2: QVQLVQSGAEVKKPGASVKVSCKASGYTFTSYVMHWVRQKPGQGLEWIGYINPYNEGTESTDKFKGRATMTSDKSTSTVYMELSSLRSEDTAVYYCASIYYGYEGTYFGVWGQGTLVTVSSASTKGPSVFPLAPSSKSTSGGTAALGCLVKDYFPEPVTVSWNSGALTSGVHTFPAVLQSSGLYSLSSVVTVPSSSLGTQTYICNVNHKPSNTKVDKKVEPKSCGGGSQAVVTQEPSLTVSPGGTVTLTCRSSTGAVTTSNYANWVQQKPGQAPRGLIGGTNKRAPWTPARFSGSLLGGKAALTITGAQAEDEADYYCALWYSNLWVFGGGTKLTVLGGGGSDKTHTCPPCPAPEAAGPSVFLFPPKPKDTLMISRTPEVTCVVVDVSHEDPEVKFNWYVDGVEVHNAKTKPREEQYNSTYRVVSVLTVLHQDWLNGKEYKCKVSNKALPAPIEKTISKAKGQPREPQVYTLPPSREEMTKNQVSLSCAVKGFYPSDIAVEWESNGQPENNYKTTPPVLDSDGSFFLVSKLTVDKSRWQQGNVFSCSVMHEALHNRFTQKSLSLSPGGGGGSGGGGSGGGGSGGGGSDIQMTQSPSSLSASVGDRVTITCRASQDIRSNLNWYQQKPGGAVKLLIYYTSRLHSGVPSRFSGSGSGTDYTLTISSLQPEDFATYFCQQSEKLPRTFGGGTKVEIR
light: B1 light
notes: Tri-specific antibody: B7H3 Fabs, central CD3 Fv, terminal CD137 Fv; Flexible linker is G3S
B4: Ly2368 (other)
chain 1: QVQLVQSGAEVKKPGASVKVSCKASGYTFTSYVMHWVRQKPGQGLEWIGYINPYNEGTESTDKFKGRATMTSDKSTSTVYMELSSLRSEDTAVYYCASIYYGYEGTYFGVWGQGTLVTVSSASTKGPSVFPLAPSSKSTSGGTAALGCLVKDYFPEPVTVSWNSGALTSGVHTFPAVLQSSGLYSLSSVVTVPSSSLGTQTYICNVNHKPSNTKVDKKVEPKSCEVQLVESGGGLVQPGGSLRLSCAASGFTFSTYAMNWVRQAPGKGLEWVGRIRSKYNNYATYYADSVKGRFTISRDDSKNSLYLQMNSLKTEDTAVYYCVRHGNFGNSYVSWFAYWGQGTLVTVSSGGGGSDKTHTCPPCPAPEAAGPSVFLFPPKPKDTLMISRTPEVTCVVVDVSHEDPEVKFNWYVDGVEVHNAKTKPREEQYNSTYRVVSVLTVLHQDWLNGKEYKCKVSNKALPAPIEKTISKAKGQPREPQVYTLPPSREEMTKNQVSLWCLVKGFYPSDIAVEWESNGQPENNYKTTPPVLDSDGSFFLYSKLTVDKSRWQQGNVFSCSVMHEALHNHYTQKSLSLSPGGGGGSGGGGSGGGGSGGGGSQVQLVQSGAEVKKPGASVKVSCKASGYTFAGFEMHWVRQAPGQGLEWMGAIDPKTGGTDYNQKFKDRVTMTRDTSISTAYMELSRLRSDDTAVYYCARDLGYFDVWGQGTLVTVSS
chain 2: QVQLVQSGAEVKKPGASVKVSCKASGYTFTSYVMHWVRQKPGQGLEWIGYINPYNEGTESTDKFKGRATMTSDKSTSTVYMELSSLRSEDTAVYYCASIYYGYEGTYFGVWGQGTLVTVSSASTKGPSVFPLAPSSKSTSGGTAALGCLVKDYFPEPVTVSWNSGALTSGVHTFPAVLQSSGLYSLSSVVTVPSSSLGTQTYICNVNHKPSNTKVDKKVEPKSCQAVVTQEPSLTVSPGGTVTLTCRSSTGAVTTSNYANWVQQKPGQAPRGLIGGTNKRAPWTPARFSGSLLGGKAALTITGAQAEDEADYYCALWYSNLWVFGGGTKLTVLGGGGSDKTHTCPPCPAPEAAGPSVFLFPPKPKDTLMISRTPEVTCVVVDVSHEDPEVKFNWYVDGVEVHNAKTKPREEQYNSTYRVVSVLTVLHQDWLNGKEYKCKVSNKALPAPIEKTISKAKGQPREPQVYTLPPSREEMTKNQVSLSCAVKGFYPSDIAVEWESNGQPENNYKTTPPVLDSDGSFFLVSKLTVDKSRWQQGNVFSCSVMHEALHNRFTQKSLSLSPGGGGGSGGGGSGGGGSGGGGSDIQMTQSPSSLSASVGDRVTITCRASQDIRSNLNWYQQKPGGAVKLLIYYTSRLHSGVPSRFSGSGSGTDYTLTISSLQPEDFATYFCQQSEKLPRTFGGGTKVEIR
light: B1 light
notes: Tri-specific antibody: B7H3 Fabs, central CD3 Fv, terminal CD137 Fv; It has no flexible linker

This assay has as its target T1, B7H3. Put plainly: ELISA or FCM (Example 2). In general terms: An ELISA detects its analyte on a solid surface through an enzyme-linked reagent.
For the molecule B1, the binding result was “binds”.

For the molecule B2, the binding result was “binds”.

In the case of B3, the binding result is reported as “binds”.

B4: the binding result is reported as “binds”.
